The results in this text go back to paper PMC2914802.

Holding throughout (assay): steady-state hydrolysis kinetics
Holding throughout (type): biochemical, Burkholderia lata
Holding throughout (conditions): Zn2+; pH 8.0

Substrate in series [1]: CC(=O)N1CCC[C@H]1C(=O)O
Substrate in series [2]: CCC(=O)N1CCC[C@H]1C(=O)O
Substrate in series [3]: CCCC(=O)N1CCC[C@H]1C(=O)O

As a reminder, the Km is the substrate concentration at which the rate is half of its maximum. One may read the kcat as the number of substrate molecules converted per active site and unit of time at saturation. What is called kcat/Km is the second-order rate constant that governs catalysis at low substrate concentration.

B1: Sgx9260c (Burkholderia lata) (protein)
chain: MTITVLQGGNVLDLERGVLLDHHHVVIDGDRIVEVTDRPVDFPNAQVIDVRGKTVMPGFIDCHVHVLASNANLGANATQPNILAAIRSLPILDAMLSRGFTSVRDAGGADWSLMQAVETGLVSGPRIFPSGKALSQTGGHGDFRPRGDLLEPCSCCFRTGAIARVVDGVEGVRLAVREEIQKGATQIKIMASGGVASPTDPIANTQYSEDEIRAIVDEAEAANTYVMAHAYTGRAIARAVRCGVRTIEHGNLVDEAAAKLMHEHGAFVVPTLVTYDALAKHGAEFGMPPESVAKVASVQQKGRESLEIYANAGVKMGFGSDLLGEMHEFQSGEFRIRAEVLGNLEALRSATTVAAEIVNMQGQLGVVAAGAIADLVVLDGNPLEDIGVVAGQGERVEYVLQRGRIVKAREFRRTMARE
Turning to B1, in series [1], the Km is 800 ± 100 µM, the kcat came out at 227 ± 9 s⁻¹ and the kcat/Km amounted to 280000 M⁻¹ s⁻¹. Also, in series [2], the Km is 1900 ± 200 µM, the kcat was found to be 141 ± 6 s⁻¹ and the kcat/Km came to 74000 M⁻¹ s⁻¹. Further, in series [3], the Km was determined as 2600 ± 300 µM, the kcat stood at 146 ± 6 s⁻¹ and the kcat/Km amounted to 56000 M⁻¹ s⁻¹.
